Where no end group is shown, it is not given here.
B1: SVH1C ([NPSHPLSGGGGS]4K3-NH2) (peptide)
peptide: NPSHPLSGGGGS
chain: Lys-Lys-Lys-NH2
modifications: also: four copies of chain 1 bound by their C-termini to the four amino groups of the branched tri-lysine core
notes: also called quadravalent SVH1C; lead peptide
B2: fetuin (other, UniProt P12763 19-359, looked up)
chain: IPLDPVAGYKEPACDDPDTEQAALAAVDYINKHLPRGYKHTLNQIDSVKVWPRRPTGEVYDIEIDTLETTCHVLDPTPLANCSVRQQTQHAVEGDCDIHVLKQDGQFSVLFTKCDSSPDSAEDVRKLCPDCPLLAPLNDSRVVHAVEVALATFNAESNGSYLQLVEISRAQFVPLPVSVSVEFAVAATDCIAKEVVDPTKCNLLAEKQYGFCKGSVIQKALGGEDVRVTCTLFQTQPVIPQPQPDGAEAEAPSAVPDAAGPTPSAAGPPVASVVVGPSVVAVPLPLHRAHYDLRHTFSGVASVESSSGEAFHVGKTPIVGQPSIPGGPVRLCPGRIRYFKI
modifications: 12 to 15 oligosaccharides terminating predominantly as Neu5Ac-Gal on three N-linked and three O-linked glycans
notes: acts through its sialylated glycans; also called glycoprotein fetuin; sialylated protein, fetuin

Tests used:
receptor NKG2D [1] = target: T1, receptor NKG2D (UniProt P26718 80-216); test: isothermal microcalorimetry; SVH1C (100 µM) titrated into NKG2D (11 µM monomer)
T1 sequence (looked up): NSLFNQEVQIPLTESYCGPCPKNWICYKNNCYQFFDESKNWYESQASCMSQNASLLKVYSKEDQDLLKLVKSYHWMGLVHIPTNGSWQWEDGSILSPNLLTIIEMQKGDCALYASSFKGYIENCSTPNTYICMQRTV

receptor NKG2D [2] = target: T1, receptor NKG2D; test: isothermal microcalorimetry; NKG2D concentration entered as monomeric binding sites
[3] = target: T2, lectin MAA from Maackia amurensis (Maackia amurensis); test: solid-phase competition; fetuin at one-third, equal or 5-fold the molar concentration of peptide; MAA
T2 construct: Plant lectin; peroxidase-conjugated in the solid-phase assays
T2 sequence (P0DKL3 30-278): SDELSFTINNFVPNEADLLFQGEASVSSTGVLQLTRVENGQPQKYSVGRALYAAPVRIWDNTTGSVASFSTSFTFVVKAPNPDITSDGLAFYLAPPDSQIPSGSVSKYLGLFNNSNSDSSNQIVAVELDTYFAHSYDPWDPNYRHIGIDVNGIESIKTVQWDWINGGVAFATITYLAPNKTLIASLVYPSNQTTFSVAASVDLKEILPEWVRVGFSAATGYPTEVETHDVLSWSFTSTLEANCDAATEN

Binder	Ka (receptor NKG2D [1])	Kd (receptor NKG2D [1])	stoichiometry, n (receptor NKG2D [2])	percent inhibition of SVH1C binding at a 5-fold molar excess of fetuin [3]
B1	1.7e+06 M⁻¹	0.6 µM	0.71	–
B2	–	–	–	90%

Reference: patent US20150299255A1 (SUSAVION BIOSCIENCES, published 2015)
